Data as given in the nanobody polyreactivity screen of Harvey et al. (2022).

Test: yeast display, Sf9 membrane polyspecificity reagent, FACS + sequencing; frameworks hold sequencing errors
How it was run: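 Sorting gates, low and high (top ~1%), were placed on anti-HA fluorescence to track expression and on streptavidin fluorescence to track reagent binding. A clone's polyreactivity label is taken from the gate it came out of. The reagent was 10% biotinylated, detergent-solubilized Sf9 membrane, applied for 1 hour at 4 °C to galactose-induced yeast display cells.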

Row | Sequence | polyreactivity (PSR sort gate)
1 | QVQLVESGGGLVQAGGILRLSCASSGRTFKSYTMGWYRQAPGKERELVASISVSGGRTYYADSVKGRFTISRDNAKNTVYLQMNSLKPEDTAVYYCAAYYVHYRPVRGYDYWGQGTEVTVSS | high polyreactivity
2 | QVQLVESGGGLVQAGGILRLSSAASGFIFKANAMGWSRQAPGKERELVAVITRRGGSTYYADSVKGSFTISRDNAKNTVYLQMNSLKREDTAVYYSAKEGSARYGPSDAYDYWGQGTQVTVSS | high polyreactivity
3 | QVQLVESGGGLVQAGGILRLSSAASGFTFYLYTMGWYTPAPGKERELVAAISRSGDRTYYADSVKGRFTISRDNAKNTVYLQMNSLKPEDTAVYYCNAYTSYPNTMDYWGQGTQVTVSS | high polyreactivity
4 | QVQLVESGGGLVQAGGILRLTSAGSGFNYYPYDMGWSRQAPGKERELVAAITQSGGSTYYADSVKGRFTISRDNAKITVYLQMISLKPEDTAVYSCNADTRGEYTYVSWYDYWGQGSQVTVSS | low polyreactivity
5 | QVQLVESGGGLVQAGGILSLSCAASGFTFTVYDMGWYRQAPGKERELVAVITSGDGTYYADSVKGRFTISRDNAKNTVYLQMNSLKPEDTAVYYCNARRYSSFRYRFAYDYWGQGTQVTVTS | low polyreactivity
6 | QVQLVESGGGLVQAGGNLRLSCAASGLIFGGYAMGWYRPAPGKERELVAAISRTGGRTYYADSVKVRFTISRDNAKNTVYLQMNSLKPEDTAVYYCATKRWWVRYDYWGQGTQVTVSS | high polyreactivity
7 | QVQLVESGGGLVQAGGRHPVSCAASGRTIAYNAKGLYRQATGKERELVASITSGGSTNYADSVKGRFTISRDYAKNTVYLQMNSLKQEHTADYYFNKDGKYHRVLFEYWGQGTQVTVSS | low polyreactivity
8 | QVQLVESGGGLVQAGGRLLLSCAASGGTFYRNAMGWYRLAPGKERELVASISRTGGSTYYADSVKGRFTISRDNAKNTVYLQMNSMKPEDTAVYYCNALPYSRGRWRPLSAVDYWGQGTQVTVSS | high polyreactivity
9 | QVQLVESGGGLVQAGGRLRFSCAASGSTFRPNAMGWYRQAPGNERELVAAITRPGGSTFYADSVKGRFTISRDYAKHTVYLQMNSLKPEDTAVYYCATRQRVDLAPLARYGYWGQGTQVTVSS | low polyreactivity
10 | QVQLVESGGGLVQAGGRLRLICAASASNFAGYDKGWYRQAPGKERELVAAITSGGDTYYADSVKGRFTISRDNAKNTGYLQMNSLKPEDTAVYYCNKDYILARYGGGRDYWGQGTQVTVSS | low polyreactivity
11 | QVQLVESGGGLVQAGGRLRLRCAACGFTFARYAMGRSSQAPGKERELLAAITWSAGSTYYADSVKGRFTISRDTGKNTVFLQMTRLKPEDTAVYYCNALVIARNIEMDYWGQGTQVTVSS | high polyreactivity
12 | QVQLVESGGGLVQAGGRLRLSCAASAFTFYYYAMGWYRPAPGKERELVAAISWSGGSTYYADSVKGRFTFSRDNAKNTVYLQMNSLKPEDTAVYYCAADVYKQYGYYYWGQGTQVTVSS | high polyreactivity
13 | QVQLVESGGGLVQAGGRLRLSCAASGFIFAYYAMGWYRQAPGKERELVAAITIDGSTNYADSVKGRFTISRDNAKNTVYLQMNSLKPEDTAVYYCAAADHPPVCYGYWGQGTQVTVSS | low polyreactivity
14 | QVQLVESGGGLVQAGGRLRLSCAASGFIFIRNAMGWYRQAPGKERELVAAITRSGGRTYYADSVKGRFTISRDKAKNTVYLQMNSLKPEDTAVYYCAADADAAWGQGTQVTVSS | high polyreactivity
15 | QVQLVESGGGLVQAGGRLRLSCAASGFIFRAYAMGWYRQAPGKERELVAAISRGGGTYYADSVKGRFTISRDNAKNTVYLQMNSLKPEDTAVYYCAVDLLRRGFTTVVTTYDYWGQGTQVTVSS | high polyreactivity
16 | QVQLVESGGGLVQAGGRLRLSCAASGFIFSLYAMGWYRQAPGKERELVAGISESGGSTYYADSVKGRFTISRDNAKNTVYLQMNSLKPEDTAVYYCNADDTVYFIKAGDYWGQGTQVTVSS | high polyreactivity
17 | QVQLVESGGGLVQAGGRLRLSCAASGFIFSYYTMGCYRQAPGKERELVAAIRSSGGSTYADSVKGRFTISRDNAKNTVYLQMNSLNPEDTAVYYGAGGYYWNEPLYWYGDFDYWGQGTQVTVSS | high polyreactivity
18 | QVQLVESGGGLVQAGGRLRLSCAASGFTFKLYAMGWYRQAPGKERELVASISRSGGSTFYADSVKGRFTISRDTAKNTGYLQMNSLKPEDTAVYYCATGWYYSPYNYWGQGTQVTVSS | high polyreactivity
19 | QVQLVESGGGLVQAGGRLRLSCAASGFTFYYNDMGWYRQAPGKERELVAAITWSGGSTYYADSVKGRFTISRDNAKNTVYLQMNSLKPEDTAVYYCNARYWVHGYRYYYWGQGTQVTVSS | high polyreactivity
20 | QVQLVESGGGLVQAGGRLRLSCAASGGIFGSYAMGWYRQAPGKERELVADITQSGGRTRYADSVKGRFTISRDNAKNTVYLQMNSLKPEDTAVYYCNAQDVDSGDDYDYWGQGTQVTVSS | low polyreactivity
21 | QVQLVESGGGLVQAGGRLRLSCAASGGIFSTYTRGWYRQEPGKERELVAAITTGNSTYYADSVKGRFTISRDNAKNTVYLQMNSLKPEDTAVYYCAADTIGYHYWYDYWGQGTQVTVSS | low polyreactivity
22 | QVQLVESGGGLVQAGGRLRLSCAASGGTFVPYAMGWYRQAPGTERELVARISKRGGTTYYADSVKGRFTISRDTAKNTVYLQMNSVKPEDTAVYYCGAVLPARGYYWGEGTQVTVSS | high polyreactivity

Row | Sequence | polyreactivity (PSR sort gate)
23 | QVQLVESGGGLVQAGGRLRLSCAASGGTFYTYFMGWYRQAPGKERELVAAISQSGGRTYYADSVKGRFTISRDNAKNTVYLQMISLKPEDTAVYYCAAPDESYSFWRLDGLDYWGQGTQVTVSS | high polyreactivity
24 | QVQLVESGGGLVQAGGRLRLSCAASGIIFASNAMGWYCQAPGKERELVAAISRSGGRTYYADSVKGRFTISRDNAKNTVYLQMNSLKPEDTAVYYCAILARSGTLPYYYWGQGTQVNVSS | high polyreactivity
25 | QVQLVESGGGLVQAGGRLRLSCAASGIIFAWYAMGWSRQAPGKERELVAAITSGGSTYYADSVKGRFTISRDNAKNTVYLQMNSLKPDDTAVYYCAASDASTGYLGRHYYWGPGTQVTVSS | high polyreactivity
26 | QVQLVESGGGLVQAGGRLRLSCAASGIIFGGYSMGWYRQAPGKERELVADITWSGGSTTYADSVKGRFTISRDNAKNTVYLQMNSLKPEDTAVYYCAAEDYYIYREPYDYWGQGTQVTVSS | low polyreactivity
27 | QVQLVESGGGLVQAGGRLRLSCAASGIIFRVYTMGWYRPEPGKERELVATISLGVARTYYADSVKGRFTISRDNAKYTVYLQMNSLKPEDTAVYYCAKRRGGQGNYWGQGTQVTVSS | high polyreactivity
28 | QVQLVESGGGLVQAGGRLRLSCAASGIIFVVNDMGWYRQAPGKEWELVADISDSGGSTNYADSVKGRFTISRDKAKNTVYLQMNSLKPEDTAVYYCAADSADPTEYDYWGQGTQVTVSS | low polyreactivity
29 | QVQLVESGGGLVQAGGRLRLSCAASGITFPGNVMGWSRHAPGKERELVAAISSTGSTNYADSVKGRFTISRDNAKNTVYLQMNSLKPEDTAVYYCAARFWYDYRHYDYWGQGTQVTVSS | low polyreactivity
30 | QVQLVESGGGLVQAGGRLRLSCAASGITFRTNTMGWYRPAPGKERELVASISSGTRTNYADSVKGRFTISRDNAKNTVYLQLNSLKPVDTAVYYCAAGPPRTRYRNARFDYWGQGTQVTVSS | high polyreactivity
31 | QVQLVESGGGLVQAGGRLRLSCAASGIVFKRYAKGWYRQAPGKEREFVATISYTGGRTYYADSVKGRFTISRDTAKNTVYLQMNSLKPEDTAVYYCATLYRSSKHQPLDYWGQGTQVTVSS | high polyreactivity
32 | QVQLVESGGGLVQAGGRLRLSCAASGLICNANPMGWYRQAPGKEREFVAAITTSGGKTYYADSVKGRFTISRDNAKYTVYLQMNSLKPEDTAVYYCAATDLYFWYPYWFAFEYDYWGLGTQVTVSS | high polyreactivity
33 | QVQLVESGGGLVQAGGRLRLSCAASGLIFYKYAMGWYRQAPGKERELVAAISSRTGSTSYADSVKGRFTISRDNAKNTVYLQMNSLKPEDTAVYYCAARPRYNEYGYWGQGTQVTVSS | high polyreactivity
34 | QVQLVESGGGLVQAGGRLRLSCAASGLTFEYNAMGWYRQAPGKERELVASISSGGGTNYADSVKGRFTISRDNAKNTVYLQMNSLKPVDTAVYYCATDNYDWSCWAFRGYWYDYWGQGTQVTVSS | low polyreactivity
35 | QVQLVESGGGLVQAGGRLRLSCAASGLTFKSYTMGLYRQAPGKERELVATISGSGTRTYYADSVKGRYTISRDNAKNTVFLQMNSLKPEDTAVYYCARVILYNNYFRYSGYRYDYWGQGTQGTVSS | high polyreactivity
36 | QVQLVESGGGLVQAGGRLRLSCAASGLTFPPNAMGWYRQAPGKERELVADSGGSTNYADSVKGRFTISRDNAKNTVYLQMNSLKPEDTAVYYCAAPPYSDGQWDDYWGQGTQVTVSS | low polyreactivity
37 | QVQLVESGGGLVQAGGRLRLSCAASGLTFPRNAMGWYRQAPGKERELVAAISWRGSSTYYADSVKGRFTISRDNAKNTVFLQMNSLQPEDTAVYYCAASYAGGQHDYWGQGTQVTVSS | high polyreactivity
38 | QVQLVESGGGLVQAGGRLRLSCAASGLTFTYNAMGWYRQEPGKERELVAAITSGGNTNYADSVKGRFTISRDNAKNTVYLQMNSLKPEDTAVYYCATDRKNGISGRYGYWGQGTQVTVSS | low polyreactivity
39 | QVQLVESGGGLVQAGGRLRLSCAASGRICIIYALGWYRQAPGKEREFVAAITSSGGSTYYADSVKGRFTISRDNAKNTVYLQMNSLTPEDTAVYYCAARVTKLRTSSLRGYWGQGTQVTVSS | high polyreactivity
40 | QVQLVESGGGLVQAGGRLRLSCAASGRIFAYYAMGWYRQAPGKERELVAGISQRGSRTYYADSVKGRFTNSRDNAKNTVYLQMNSLTPEDTAVYYCAARDRRTVTMDYWGQGTQVTVSS | high polyreactivity
41 | QVQLVESGGGLVQAGGRLRLSCAASGRIFDPYAMGWCRQAPGKESELVASISWSGGRTYYADSVKGRFTISRDNAKNTVYLQMNSLKPEDTAVYYCAAREWYRYKVRFDYWGQGTQVTVSS | high polyreactivity
42 | QVQLVESGGGLVQAGGRLRLSCAASGRIFFYYAMGWYRQAPGKERELVAAITSGGNTNYADSVKGRFTISRDNAKNTVYLQMNSLKPEDTAVYYCNKDLYADGQYNYDYWGQGTQVTVSS | low polyreactivity
43 | QVQLVESGGGLVQAGGRLRLSCAASGRIFGFNAMGWYRQAPGKERELVAAIDGNDASTFYADSGKGRFTISRDNAKNTDYFQMNSLKPEDTAVYYCAAESSYVYLGWREYWGQGTQVTVSS | high polyreactivity
